Consider six molecules from patent publication US20120178909A1 (MorphoSys, published 2012).

The target in this test is T1, DV2 NS2B-NS3pro construct, wild type (strain 16681) (WNV strain of the DV serotype 2 (DV2; …, UniProt P29990 1393-1440; P29990 1476-1687).
T1 construct: range 1393-1440;range 1476-1687
As to the kind of experiment: ELISA on coated construct.

Residue numbers refer to the chain shown, from its start.

B1: AbD05446 (Fab, V domains shown)
VH: QVQLVESGGGLVQPGGSLRLSCAASGFTFNSNSMSWVRQAPGKGLEWVSGISGIGSNTNYADSVKGRFTISRDNSKNTLYLQMNSLRAEDTAVYYCARVHYYSGVVFDFWGQGTLVTVSS
VL: DIELTQPPSVSVAPGQTARISCSGDNLRTQYASWYQQKPGQAPVLVIYNKNKRPSGIPERFSGSNSGNTATLTISGTQAEDEADYYCAAWDSGSIVFGGGTKLTVLG
For the molecule B1, the binding result is reported as “no binding (tested: 2 µg/ml antibody)”.

B2: AbD05322 (Fab, V domains shown)
VH: QVQLVESGGGLVQPGGSLRLSCAASGFTFSNFWMSWVRQAPGKGLEWVSAISYSSSSTYFADSVKGRFTISRDNSKNTLYLQMNSLRAEDTAVYYCARAYRSYFDIWGQGTLVTVSS
VL: DIQMTQSPSSLSASVGDRVTITCRASQSISNWLNWYQQKPGKAPKLLIYNASILQSGVPSRFSGSGSGTDFTLTISSLQPEDFAVYYCQQNYGIPITFGQGTKVEIKR
As for B2, the binding result is listed as “no binding (tested: 2 µg/ml antibody)”.

B3: AbD05444 (Fab, V domains shown)
VH: QVQLVESGGGLVQPGGSLRLSCAASGFTFSSYWLNWVRQAPGKGLEWVSGISSSSSSTFYADGVKGRFTISRDNSKNTLYLQMNSLRAEDTAVYYCARHSYFDYWGQGTLVTVSS
VL: B2 VL with S30V, N31T, W32Y, N50A, I53N, N91L, G93S, I94H, I96P
In the case of B3, the binding result is “no binding (tested: 2 µg/ml antibody)”.

B4: AbD05320 (Fab, V domains shown)
VH: QVQLVQSGAEVKKPGESLKISCKGSGYSFTNYWISWVRQAPGKGLEWMGIIDPGDSDTNYSPSFQGQVTISADKSISTAYLQWSSLKASDTAMYYCARVNYYNFDYWGQGTLVTVSS
VL: DIVLTQSPATLSLSPGERATLSCRASQSVTSNLAWYQQKPGQAPRLLIYGNVSRRATGVPARFSGSGSGTDFTLTISSLEPEDFATYYCQQYGDYPATFGQGTKVEIKR
For B4, the binding result was “no binding (tested: 2 µg/ml antibody)”.

B5: AbD05321 (Fab, V domains shown)
VH: QVQLVQSGAEVKKPGSSVKVSCKASGGTFSSHAISWVRQAPGQGLEWMGGIIPIFGMANYAQKFQGRVTITADESTSTAYMELSSLRSEDTAVYYCARYYWKPVLFDFDVWGQGTLVTVSS
VL: DIALTQPASVSGSPGQSITISCTGTSSDIGGNNYVSWYQQHPGKAPKVMIYEVSKRPSGVSNRFSGSKSGNTASLTISGLQAEDEADYYCSSYTMTIFVFGGGTKLTVLG
Consider B5, for which the binding result was “no binding (tested: 2 µg/ml antibody)”.

B6: AbD05445 (Fab, V domains shown)
VH: QVQLVESGGGLVQPGGSLRLSCAASGFTFSNNAMTWVRQAPGKGLEWVSLISYSGSSTYYADSVKGRFTISRDNSKNTLYLQMNSLRAEDTAVYYCARLGGNPLGPFDHWGQGTLVTVSS
VL: DIALTQPASVSGAPGQRVTISCTGTSSDIGGYSYVSWYQQHPGKAPKLMIYGVTKRPSGVSNRFSGSKSGNTASLTISGLQAEDEADYYCQSWATHPIRVFGGGTKLTVLG
Consider B6, for which the binding result was “no binding (tested: 2 µg/ml antibody)”.
